Test results reported in article PMC3129650 (Journal of immunology (Baltimore, Md. : 1950), 2011).

Molecular target: T1, Native purified human beta2-glycoprotein I (β2GPI) (human, UniProt P02749 20-345)
T1 sequence (looked up): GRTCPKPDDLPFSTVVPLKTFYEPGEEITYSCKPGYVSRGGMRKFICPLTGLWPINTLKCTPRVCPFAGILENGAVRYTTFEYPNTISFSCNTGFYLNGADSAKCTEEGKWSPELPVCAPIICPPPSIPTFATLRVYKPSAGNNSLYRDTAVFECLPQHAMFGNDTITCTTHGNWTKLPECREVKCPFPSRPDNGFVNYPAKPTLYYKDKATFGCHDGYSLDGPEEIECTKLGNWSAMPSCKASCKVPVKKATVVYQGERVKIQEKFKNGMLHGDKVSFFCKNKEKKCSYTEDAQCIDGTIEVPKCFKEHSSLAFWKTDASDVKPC
Experiment: ELISA

- binding result: binds
B1: MBP-Ro60 aa 82–244 (domain or fragment)
chain: not shown
modifications: biotin (Sulfo-NHS-Biotin)
